For the data set, the system named is raptor (Regulatory Associated Protein of mTOR), endogenous human protein.

Results on one substance are retold here after US20040072207.

With “mTOR (mammalian target of rapamycin), endogenous protein of human cell lines”, the “in vitro kinase activity of mTOR towards S6K1 (32P incorporation into GST-S6K1)” value is listed as “the in vitro kinase activity of mTOR towards S6K1 inversely correlated with the amount of raptor recovered with mTOR”.
